# Test system: MCF7 cells
# Experiment: PDS co-culture of MCF7 cells with activated T-lymphocytes, with or without PD1 blockade: viability of MCF7 cells
# Type: cell-based, human
# Settings: for % of viable MCF7 cells after 48 hours of co-culture with T-lymphocytes: MCF7 + TA+ pre-incubated with Pembr 100 μg/mL 30 min, relative to only-MCF7 control, average ± SD of 3 technical replicates
# Description: FIG. 25. PD1 blocking antibody increases the killing capacity of the T-lymphocytes in PDS-dependent manner. T-lymphocytes were activated 20 hours by exposition to CD3/CD28 Dynabeads. […] Then, the co-cultures were incubated for 48 hours. Controls including only MCF7 cells or T-lymphocytes, and 2D cultures were included. (A) Surface expression of PD1 by T-lymphocytes analyzed by FACS. (B) Graph showing the % of viable MCF7 cells after 48 hours of co-culture with T-lymphocytes in 5 different PDSs. Data are relative to their own control with only MCF7 cells and show average±SD of 3 technical replicates.
# In addition, in FIG. 13, it is shown how differential expression of PDL1 by MCF7 cells is triggered by different breast cancer PDSs. […] First, T-lymphocytes were activated 20 hours by exposure to CD3/CD28 Dynabeads. […] The blockade of PD1 protein in the T-lymphocytes was confirmed by FACS (FIG. 25A). The T-lymphocytes, with or without PD1 blockade (Pembr) were then added to the PDS cultures, in which the MCF7 cells had been growing for 21 days. The co-cultures were incubated for 48 hours. Control samples included samples with MCF7 cells or T-lymphocytes on their own, and 2D cultures.
substance,measurement,setting,value
Pembrolizumab,% of viable MCF7 cells after 48 hours of co-culture with T-lymphocytes,2D MCF7 culture,5.5 ± 0.6%
same,% of viable MCF7 cells after 48 hours of co-culture with T-lymphocytes,PDS13,31.2 ± 1.7%
same,killing efficacy of the T-lymphocytes after Pembrolizumab treatment,"PDS13 and PDS17, compared to without this treatment",no changes
same,killing effect of the T-lymphocytes after incubation with Pembrolizumab,"PDS14, PDS15 and PDS16, compared to T-lymphocytes without this treatment",higher
same,% of viable MCF7 cells after 48 hours of co-culture with T-lymphocytes,PDS14,12.8 ± 2.3%
same,% of viable MCF7 cells after 48 hours of co-culture with T-lymphocytes,PDS15,9.5 ± 0.6%
same,% of viable MCF7 cells after 48 hours of co-culture with T-lymphocytes,PDS16,9.1 ± 2.5%
same,% of viable MCF7 cells after 48 hours of co-culture with T-lymphocytes,PDS17,19.2 ± 4.3%
same,killing capacity of the T-lymphocytes,"in PDS-dependent manner, FIG. 25 legend",increases

# Source: US20230407267A1, “USES OF PATIENT-DERIVED SCAFFOLDS” (Iscaff Pharma AB, priority 2020, published 2023)
